Measured values taken from patent publication US20260184782A1 (TWIST BIOSCIENCE, published 2026).
Substitutions are numbered along the chain they refer to.

T1: human TIGIT-Fc (human, UniProt Q495A1 22-141, limits assumed)
T1 construct: not shown: Fc; not described
T1 sequence (looked up): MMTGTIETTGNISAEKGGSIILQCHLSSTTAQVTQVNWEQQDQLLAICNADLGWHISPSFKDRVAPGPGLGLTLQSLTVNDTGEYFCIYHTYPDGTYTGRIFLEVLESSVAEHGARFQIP

B1: TIGIT-SC81 (Fc fusion)
VHH: EVQLVESGGGLVQPGGSLRLSCAASGRSFKDDAMGWFRQAPGKEREFVAAISWSGDSTHYADSVKGRFTISADNSKNTAYLQMNSLKPEDTAVYYCARWVWASGTYWIDYWGQGTLVTVSS
notes: VHH-Fc
B2: TIGIT-SC66 (Fc fusion)
VHH: EVQLVESGGGLVQPGGSLRLSCAASGTTFSSAAMGWFRQAPGKEREWVASVLRGGYTWYADSVKGRFTISADNSKNTAYLQMNSLKPEDTAVYYCVTDPRQWLGHDYWGQGTLVTVSS
notes: VHH-Fc
B3: TIGIT-SC56 (Fc fusion)
VHH: EVQLVESGGGLVQPGGSLRLSCAASGNTFSGGFMGWFRQAPGKEREWVASVLRGGYTWYADSVKGRFTISADNSKNTAYLQMNSLKPEDTAVYYCAHSKGYNWFDPWGQGTLVTVSS
notes: VHH-Fc
B4: TIGIT-SC71 (Fc fusion)
VHH: EVQLVESGGGLVQPGGSLRLSCAASGSIRSLNAMGWFRQAPGKEREFVAAINWDSARTYYADSVKGRFTISADNSKNTAYLQMNSLKPEDTAVYYCARWSAKRHSDTMTYYMDVWGQGTLVTVSS
notes: VHH-Fc
B5: TIGIT-SC100 (Fc fusion)
VHH: EVQLVESGGGLVQPGGSLRLSCAASGRTLSDRAMGWFRQAPGKEREFVAAITDNGGSTYYADSVKGRFTISADNSKNTAYLQMNSLKPEDTAVYYCARWYSSSGDYYYMDVWGQGTLVTVSS
notes: VHH-Fc
B6: TIGIT-SC101 (Fc fusion)
VHH: B5 VHH with L29F, D31S, R32Y, T52D, D53W, N54S, G55D
notes: VHH-Fc
B7: TIGIT-SC102 (Fc fusion)
VHH: EVQLVESGGGLVQPGGSLRLSCAASGSTFSKHHAMGWFRQAPGKEREFVAAIRWSGGNTYYADSVKGRFTISADNSKNTAYLQMNSLKPEDTAVYYCARWYSSSGDYYYMDVWGQGTLVTVSS
notes: VHH-Fc
B8: TIGIT-SC70 (Fc fusion)
VHH: EVQLVESGGGLVQPGGSLRLSCAASGRTFSSFAMGWFRQAPGKEREFVAAISGSGEDTYYADSVKGRFTISADNSKNTAYLQMNSLKPEDTAVYYCARWRLDRRQGFYYAMDVWGQGTLVTVSS
notes: VHH-Fc
B9: TIGIT-SC49 (Fc fusion)
VHH: EVQLVESGGGLVQPGGSLRLSCAASGRTFIGYHMGWFRQAPGKEREFVAAISWTGESTLYADSVKGRFTISADNSKNTAYLQMNSLKPEDTAVYYCARDDYGDYRRYFQHWGQGTLVTVSS
notes: VHH-Fc
B10: TIGIT-SC85 (Fc fusion)
VHH: EVQLVESGGGLVQPGGSLRLSCAASGRTFSPYTMGWFRQAPGKEREWVAGISQSGGSTAYADSVKGRFTISADNSKNTAYLQMNSLKPEDTAVYYCARDLNAMGDAYDIWGQGTLVTVSS
notes: VHH-Fc
B11: TIGIT-SC76 (Fc fusion)
VHH: EVQLVESGGGLVQPGGSLRLSCAASGFTFSDYAMGWFRQAPGKERELVARIGHDGSTDYADSVKGRFTISADNSKNTAYLQMNSLKPEDTAVYYCLGGLDPWGQGTLVTVSS
notes: VHH-Fc
B12: TIGIT-SC72 (Fc fusion)
VHH: EVQLVESGGGLVQPGGSLRLSCAASGGLTFSSYAMGWFRQAPGKEREFVAAISWSGGRTYYADSVKGRFTISADNSKNTAYLQMNSLKPEDTAVYYCARWSAKRHSDTMTYYMDVWGQGTLVTVSS
notes: VHH-Fc
B13: TIGIT-SC47 (Fc fusion)
VHH: EVQLVESGGGLVQPGGSLRLSCAASGRALNMYVMGWFRQAPGKERELVAAIDWSGGSALYADSVKGRFTISADNSKNTAYLQMNSLKPEDTAVYYCASGDGYSMDYFDPWGQGTLVTVSS
notes: VHH-Fc
B14: TIGIT-SC48 (Fc fusion)
VHH: EVQLVESGGGLVQPGGSLRLSCAASGRTSDIYGMGWFRQAPGKEREAVASIWRSGGNTYYADSVKGRFTISADNSKNTAYLQMNSLKPEDTAVYYCASSTLDVWGQGTLVTVSS
notes: VHH-Fc
B15: TIGIT-SC92 (Fc fusion)
VHH: EVQLVESGGGLVQPGGSLRLSCAASGSTIENYAMGWFRQAPGKEREFVAAIDWSGGSTYYADSVKGRFTISADNSKNTAYLQMNSLKPEDTAVYYCARWRSIWSGYDDYYYMDVWGQGTLVTVSS
notes: VHH-Fc
B16: TIGIT-SC91 (Fc fusion)
VHH: B15 VHH with S27F, I29F, E30S, D52N, S54N, G55S, G56R
notes: VHH-Fc
B17: TIGIT-SC93 (Fc fusion)
VHH: B15 VHH with G26S, S27R, I29V, E30S, N31S, Y32H, D52S, G56V, S57T
notes: VHH-Fc
B18: TIGIT-SC86 (Fc fusion)
VHH: EVQLVESGGGLVQPGGSLRLSCAASGIIASDSAMGWFRQAPGKEREFVAAIRWSGKETWYADSVKGRFTISADNSKNTAYLQMNSLKPEDTAVYYCARWGGVTFGGVYPLEYWGQGTLVTVSS
notes: VHH-Fc
B19: TIGIT-SC103 (Fc fusion)
VHH: EVQLVESGGGLVQPGGSLRLSCAASGTITSAVFMGWFRQAPGKEREFVAAISWSGGDTNYADSVKGRFTISADNSKNTAYLQMNSLKPEDTAVYYCARWGGITFGGVYPLDYWGQGTLVTVSS
notes: VHH-Fc
B20: TIGIT-SC88 (Fc fusion)
VHH: EVQLVESGGGLVQPGGSLRLSCAASGFTFSSDWMGWFRQAPGKEREFVAAINRSGHSTSYADSVKGRFTISADNSKNTAYLQMNSLKPEDTAVYYCARWGGVTFGGVYPLEYWGQGTLVTVSS
notes: VHH-Fc
B21: TIGIT-SC73 (Fc fusion)
VHH: EVQLVESGGGLVQPGGSLRLSCAASGSSFSLADYAMGWFRQAPGKEREFVAAISYNVGTTYYADSVKGRFTISADNSKNTAYLQMNSLKPEDTAVYYCARWSAKRHSDTMTYYMDVWGQGTLVTVSS
notes: VHH-Fc
B22: TIGIT-SC55 (Fc fusion)
VHH: EVQLVESGGGLVQPGGSLRLSCAASGFPFDDYAMGWFRQAPGKERELVAVIRWTGMNTHYADSVKGRFTISADNSKNTAYLQMNSLKPEDTAVYYCAKGIAVAGAFDYWGQGTLVTVSS
notes: VHH-Fc
B23: TIGIT-SC104 (Fc fusion)
VHH: EVQLVESGGGLVQPGGSLRLSCAASGFTFSTYTMGWFRQAPGKEREFVAAISPSGNTYYADSVKGRFTISADNSKNTAYLQMNSLKPEDTAVYYCARWGGITFGGVYPLDYWGQGTLVTVSS
notes: VHH-Fc
B24: TIGIT-SC87 (Fc fusion)
VHH: EVQLVESGGGLVQPGGSLRLSCAASGSIDTINTMGWFRQAPGKEREFVAAITPSSRTTYYVDSVKGRFTISADNSKNTAYLQMNSLKPEDTAVYYCARWGGVTFGGVYPLEYWGQGTLVTVSS
notes: VHH-Fc
B25: TIGIT-SC96 (Fc fusion)
VHH: EVQLVESGGGLVQPGGSLRLSCAASGMTTIGPMGWFRQAPGKEREFVAAINWSGSSTVYADSVKGRFTISADNSKNTAYLQMNSLKPEDTAVYYCVTYSAYDFRNAWGQGTLVTVSS
notes: VHH-Fc
B26: TIGIT-SC69 (Fc fusion)
VHH: EVQLVESGGGLVQPGGSLRLSCAASGGTFNGRAMGWFRQAPGKEREFVAAISSIGDTYYADSVKGRFTISADNSKNTAYLQMNSLKPEDTAVYYCARWRLDRRQGFYYAMDVWGQGTLVTVSS
notes: VHH-Fc
B27: TIGIT-SC89 (Fc fusion)
VHH: EVQLVESGGGLVQPGGSLRLSCAASGSMSSINAMGWFRQAPGKEREFVAAINYEGDRTYYADSVKGRFTISADNSKNTAYLQMNSLKPEDTAVYYCARWTRGLVSGTYYYYMDVWGQGTLVTVSS
notes: VHH-Fc
B28: TIGIT-SC90 (Fc fusion)
VHH: EVQLVESGGGLVQPGGSLRLSCAASGDTFSSKAMGWFRQAPGKEREFVAAIRWSVSSTYYADSVKGRFTISADNSKNTAYLQMNSLKPEDTAVYYCARWTRGLVSGTYYYYMDVWGQGTLVTVSS
notes: VHH-Fc
B29: TIGIT-SC94 (Fc fusion)
VHH: EVQLVESGGGLVQPGGSLRLSCAASGSSFSAYAMGWFRQAPGKEREFVSLINWSSGKTIYADSVKGRFTISADNSKNTAYLQMNSLKPEDTAVYYCARVRIFNHVHRPSYYFDYWGQGTLVTVSS
notes: VHH-Fc
B30: TIGIT-SC52 (Fc fusion)
VHH: EVQLVESGGGLVQPGGSLRLSCAASGFLFDSYAMGWFRQAPGKEREFVAAISTGGGWRTYADSVKGRFTISADNSKNTAYLQMNSLKPEDTAVYYCAKRGNDNWYFDLWGQGTLVTVSS
notes: VHH-Fc
B31: TIGIT-SC74 (Fc fusion)
VHH: EVQLVESGGGLVQPGGSLRLSCAASGRTFANNAMGWFRQAPGKEREFVAAINWSGGNTYYADSVKGRFTISADNSKNTAYLQMNSLKPEDTAVYYCAKWSYYGSGLYGMDVWGQGTLVTVSS
notes: VHH-Fc
B32: TIGIT-SC75 (Fc fusion)
VHH: B31 VHH with R27F, T28I, F29G, A30N, N31Y, N32H, N52R, G55D, N57S, T58S
notes: VHH-Fc
B33: TIGIT-SC79 (Fc fusion)
VHH: EVQLVESGGGLVQPGGSLRLSCAASGSILSINTMGWFRQAPGKEREFVAAITSAGGTTYYADSVKGRFTISADNSKNTAYLQMNSLKPEDTAVYYCARWHYDILTGYYWLDSWGQGTLVTVSS
notes: VHH-Fc
B34: TIGIT-SC80 (Fc fusion)
VHH: B33 VHH with S27N, L29P, S30P, T33A, T52N, S53Y, A54S, T57S
notes: VHH-Fc
B35: TIGIT-SC99 (Fc fusion)
VHH: EVQLVESGGGLVQPGGSLRLSCAASGSIFSMNTMGWFRQAPGKEREFVGAINWSGGSTIYADSVKGRFTISADNSKNTAYLQMNSLKPEDTAVYYCARWDYDILTNYYWLEYWGQGTLVTVSS
notes: VHH-Fc

molecular target: T1, human TIGIT-Fc; assay: CD155 competition ELISA, single point; also: test concentration or dose not given here
Procedure: TIGIT/CD155 inhibition of VHH-Fcs were assessed using an ELISA assay (Table 10B). Briefly, human TIGIT-Fc was coated on a plate & then incubated with VHH-Fcs and human CD155-biotin. Bound CD155-biotin was detected using a streptavidin-HRP conjugate visualized with TMB. Strong inhibitors from the single point screen were titrated to determine EC50 (Table 10C).

Going from B1 to B2, the “OD (450 nm)” value falls from 0.553 OD to 0.325 OD.

Going from B3 to B4, the “OD (450 nm)” value rises from 0.335 OD to 0.868 OD.

First: B5
Second: B6
The “OD (450 nm)” value of the first is higher: 0.692 OD for the first, 0.394 OD for the second.

Going from B7 to B8, the “OD (450 nm)” value rises from 0.311 OD to 0.64 OD.

First: B9
Second: B10
The “OD (450 nm)” value of the first is lower: 0.382 OD for the first, 0.768 OD for the second.

Going from B11 to B12, the “OD (450 nm)” value falls from 0.673 OD to 0.394 OD.

Compared with B13, B14 is lower in “OD (450 nm)” value: 0.69 OD for the first, 0.381 OD for the second.

Going from B15 to B16, the “OD (450 nm)” value falls from 0.593 OD to 0.484 OD.

Going from B17 to B18, the “OD (450 nm)” value rises from 0.307 OD to 0.716 OD.

Going from B19 to B20, the “OD (450 nm)” value falls from 0.666 OD to 0.484 OD.

Compared with B21, B22 is lower in “OD (450 nm)” value: 0.405 OD for the first, 0.364 OD for the second.

Going from B23 to B24, the “OD (450 nm)” value falls from 0.701 OD to 0.438 OD.

Going from B25 to B26, the “OD (450 nm)” value falls from 0.677 OD to 0.666 OD.

Compared with B27, B28 is higher in “OD (450 nm)” value: 0.384 OD for the first, 0.519 OD for the second.

Compared with B29, B30 is lower in “OD (450 nm)” value: 0.513 OD for the first, 0.351 OD for the second.

Going from B31 to B32, the “OD (450 nm)” value rises from 0.649 OD to 0.652 OD.

Going from B33 to B34, the “OD (450 nm)” value falls from 0.8 OD to 0.508 OD.

With B35 the “OD (450 nm)” value was 0.635 OD.
